Laboratory results taken from PMC12412624, “Engineered Cas12j‐8 is a Versatile Platform for Multiplexed Genome Modulation in Mammalian Cells”.
Positions count from the first letter of the chain named.

Experiments:
[1] = test system: T1, dCas12j-8 E258R+E157R E258R;E157R;D369A;E567A;D658A (bacteriophage (metagenome)); details: HEK293T cells; panel 1d (compare within a panel only); scale: mean GFP / mean GFP of wild type, printed, no background subtraction
T1 sequence: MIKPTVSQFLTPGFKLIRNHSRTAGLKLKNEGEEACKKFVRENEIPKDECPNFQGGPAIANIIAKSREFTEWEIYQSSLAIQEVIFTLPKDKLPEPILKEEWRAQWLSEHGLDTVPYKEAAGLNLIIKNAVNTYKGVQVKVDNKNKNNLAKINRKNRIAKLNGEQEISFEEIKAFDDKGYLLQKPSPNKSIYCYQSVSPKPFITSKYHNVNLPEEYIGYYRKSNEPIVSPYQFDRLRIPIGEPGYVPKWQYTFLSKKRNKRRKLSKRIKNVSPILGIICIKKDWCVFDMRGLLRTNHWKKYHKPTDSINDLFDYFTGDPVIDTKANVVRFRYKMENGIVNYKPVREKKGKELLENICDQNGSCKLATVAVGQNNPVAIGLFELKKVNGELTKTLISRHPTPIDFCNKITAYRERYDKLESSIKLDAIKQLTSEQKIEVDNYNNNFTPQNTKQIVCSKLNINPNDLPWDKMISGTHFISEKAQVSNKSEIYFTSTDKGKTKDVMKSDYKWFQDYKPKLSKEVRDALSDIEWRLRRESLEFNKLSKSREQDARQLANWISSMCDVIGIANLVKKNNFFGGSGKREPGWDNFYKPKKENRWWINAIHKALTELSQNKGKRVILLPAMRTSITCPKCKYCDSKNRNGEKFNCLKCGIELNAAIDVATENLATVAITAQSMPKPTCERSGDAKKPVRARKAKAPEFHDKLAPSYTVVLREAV

[2] = test system: T2, dCas12j-8 D495R D495R;D369A;E567A;D658A (bacteriophage (metagenome)); details: HEK293T cells; panel 1c (compare within a panel only); scale: mean GFP / mean GFP of wild type, printed, no background subtraction
T2 sequence: T1 sequence with R157E, R258E, D495R

[3] = test system: T3, dCas12j-8 E258R+D495R+D527R E258R;D495R;D527R;D369A;E567A;D658A (bacteriophage (metagenome)); details: HEK293T cells; panel 1e (compare within a panel only); scale: mean GFP / mean GFP of wild type, printed, no background subtraction
T3 sequence: T1 sequence with R157E, D495R, D527R

Sequence: CUUUCAAGACUAAUAGAUUGCUCCUUACGAGGAGACACUCCCUAUCAGUGAUAGAG / TTNACTCCCTATCAGTGATAGAG / CTCTATCACTGATAGGGAGTNAA [TetO]
- binding signal [1]: 2.16
- binding signal [2]: 1.18
- binding signal [3]: 3.63
